The target in the test is barnase (ribonuclease from Bacillus amyloliquefaciens) (Bacillus amyloliquefaciens) (UniProt P00648). In words: cell-based or functional assay.
Sequence of UniProt P00648 (P00648 48-157 limits assumed): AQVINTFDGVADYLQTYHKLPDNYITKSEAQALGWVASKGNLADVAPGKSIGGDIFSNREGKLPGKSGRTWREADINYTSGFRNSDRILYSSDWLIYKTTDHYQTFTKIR

The substance “barstar protein (product of the wild type and of the modified barstar gene of Bacillus amyloliquefaciens) (from UniProt P11540 2-90)” had a Percent of restored (male fertile) plants after transformation of barnase line bn 3.6 with construct A, A9-bs(fm)::TA29-bs(wt) of 89.8%; a Percent of restored (male fertile) plants after transformation of barnase line bn 3.6 with construct B, TA29-bs(wt) of 65.6%; a Percent of restored (male fertile) plants after transformation of barnase line bn 3.6 with construct C, A9-bs(wt) of 12.7%; a Percent of restored (male fertile) plants after transformation of barnase line bn 3.6 with construct D, A9-bs(fm) of 10.8%.

Values taken from patent US7741541.
